# Results taken from article doi:10.1101/2020.05.28.121053.
# Where two headings read alike, the source gives them in different places. Ends that are not written are not given here.
# How the values were obtained:
# Assay in all cases: fluorescence polarisation
# [1] = target: mbGIPC PDZ domain (Monosiga brevicollis GIPC homologue, original construct) (Monosiga brevicollis)
# [2] = target: mbGIPC PDZ domain (Monosiga brevicollis GIPC homologue, original construct) (Monosiga brevicollis); remark: listed apart in the source
# [3] = target: mbSHANK1 PDZ domain (Monosiga brevicollis SHANK1 homologue) (Monosiga brevicollis)
molecule,measurement,setting,value
tyrosinase-related protein 1 (TYRP1) C-terminal peptide,fold worse affinity than GAIP,[1],10 fold
β-1 adrenergic receptor (B1AR) C-terminal peptide,fold worse affinity than GAIP,[1],20 fold
GAIP C-terminal peptide,Ki,[1],0.14 µM
VEPKKSFDEI [decameric peptide matching the final 10 residues of the mbGIPC_(SFDEI) construct],Ki,[2],> 1000 µM
"NDPAWDETNL (also: fluorescent label, kind and position not given here) [fluorescent β-PIX peptide]",fold higher affinity than the GIRK3 peptide,[3],62 fold
